Results: patent US7314724B2, “Therapeutic applications of laminin and laminin-derived protein fragments” (University of Washington, priority 1996, dated 2008)
Entries after “also recorded” stand apart in the source; their conditions may differ.

Key:
Aβ (1-40) = biological target: T1, Aβ (1-40) (Homo sapiens, UniProt P05067); assay: Thioflavin T fluorometry, Aβ (1-40) amyloid fibril formation; assay type: biochemical; conditions: for dose dependence of inhibition of Aβ fibril formation, in words: 5 nM, 15 nM, 40 nM and 100 nM laminin, 1 week (FIG. 4); for fold inhibition of Aβ (1-40) amyloid fibril formation (fluorescence lower than Aβ alone): 37° C.; for fold decrease of Aβ fibrillogenesis: comparison study (FIG. 3); for inhibition of Aβ fibril formation, in words: dose study (FIG. 4), 3 days and 7 days
T1 construct: 2 μg of Aβ (1-40)(Bachem Inc., Torrance, Calif. USA; Lot #WM365); purchased Bachem Inc., Torrance, Calif; Lot #WM365
T1 sequence (P05067 672-711 limits assumed): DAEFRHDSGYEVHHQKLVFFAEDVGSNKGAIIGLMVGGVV
Experimental: The effects of laminin on Aβ fibrillogenesis was also determined using the previously described method of Thioflavin T fluorometry (Naiki et al, Lab. Invest. 65:104-110, 1991; Levine III, Protein Sci. 2:404-410, 1993; Levine III, Int. J. Exp. Clin. Invest. 2:1-6, 1995; Naiki and Nakakuki, Lab. Invest. 74:374-383, 1996). In this assay, Thioflavin T binds specifically to fibrillar amyloid and this binding produces a fluorescence enhancement at 480 nm that is directly proportional to the amount of amyloid fibrils formed (Naiki et al, Lab. Invest. 65:104-110, 1991; Levine III, Protein Sci. 2:404-410, 1993; Levine III, Int. J. Exp. Clin. Invest. 2:1-6, 1995; Naiki and Nakakuki, Lab. Invest. 74:374-383, 1996). In a first study, the effects of EHS laminin on Aβ (1-40) fibrillogenesis was assessed. For this study, 25 μM of freshly solubilized Aβ (1-40)(Bachem Inc., Torrance, Calif., USA; Lot #WM365) was incubated in microcentrifuge tubes at 37° C. for 1 week (in triplicate), either alone, or in the presence of 100 nM EHS laminin (Sigma Chemical Company, St. Louis, Mo., USA) in 100 mM Tris, 50 mM NaCl, pH 7.0 (TBS). 100 nM of laminin utilized for these studies represented a Aβ:laminin molar ratio of 250:1. 50 μl aliquots were then taken from each tube for analysis at 1 hr, 1 day, 3 days, and 1 week. In a second set of studies, the effects of laminin on Aβ (1 -40) fibril formation was directly compared to other basement membrane components including fibronectin, type IV collagen and perlecan. For these studies, 25 μM of freshly solubilized Aβ (1-40) was incubated in microcentrifuge tubes for 1 week (in triplicate) either alone, or in the presence of 100 nM of EHS perlecan (isolated as previously described)(Castillo et al, J. Biochem. 120:433-444, 1996), fibronectin (Sigma Chemical Company, St. Louis, Mo., USA) or type IV collagen (Sigma Chemical Company, St. Louis, Mo., USA). 50 ul aliquots were then taken for analysis at 1 hour, 1 day, 3 days and 1 week. In a third set of studies, 25 μM of freshly solubilized Aβ (1-40) was incubated in microcentrifuge tubes for 1 week (in triplicate) either alone, or in the presence of increasing concentrations of laminin (i.e. 5 nM, 15 nM, 40 nM and 100 nM). 50 μl aliquots were taken for analysis at 1 hour, 1 day, 3 days and 1 week.
For each determination described above, following each incubation period, Aβ peptides +/− laminin, perlecan, fibronectin or type IV collagen, were added to 1.2 ml of 100 μM Thioflavin T (Sigma Chemical Co., St. Louis, Mo.) in 50 mM phosphate buffer (pH 6.0). Fluorescence emission at 480 nm was measured on a Turner instrument-model 450 fluorometer at an excitation wavelength of 450 nm. For each determination, the fluorometer was calibrated by zeroing in the presence of the Thioflavin T reagent alone, and by seting the 50 ng/ml riboflavin (Sigma Chemical Co., St. Louis, Mo.) in the Thioflavin T reagent to 1800 fluorescence units. All fluorescence determinations were based on these references and any background fluorescence given off by laminin, perlecan, type IV collagen, or fibronectin alone in the presence of the Thioflavin T reagent was always subtracted from all pertinent readings.

[1] = biological target: T2, pre-formed Aβ (1-40) amyloid fibrils (Homo sapiens, UniProt P05067); assay: Thioflavin T fluorometry, dissolution of pre-formed Aβ (1-40) amyloid fibrils; assay type: biochemical; conditions: for dissolution of pre-formed Aβ amyloid fibrils: 25 μM fibrillized Aβ, 4 day incubation; for dose dependence of dissolution of pre-formed Aβ amyloid fibrils, in words: 16-125 nM laminin, 4 day incubation (FIG. 5)
T2 construct: 2 μg of Aβ (1-40)(Bachem Inc., Torrance, Calif. USA; Lot #WM365); purchased Bachem Inc., Torrance, Calif; Lot #WM365
T2 sequence (P05067 672-711 limits assumed): as above
Experimental: For this study, 1 mg of Aβ (1-40)(Bachem Inc., Torrance, Calif., USA; Lot #WM365) was dissolved in 1.0 ml of double distilled water (1 mg/ml solution) and then incubated at 37° C. for 1 week. 25 μM of fibrillized Aβ was then incubated at 37° C. in the presence or absence of laminin (from EHS tumor; Sigma Chemical Company, St. Louis, Mo., USA) at concentrations of 125 nM, 63 nM, 31 nM and 16 nM containing 150 mM Tris HCl, 10 mM NaCl, pH 7.0. Following a 4 day incubation, 50 μl aliquots were added to 1.2 ml of 100 μM Thioflavin T (Sigma Chemical Co., St. Louis, Mo.) in 50 mM NaPO4 (pH 6.0) for fluorometry readings as described in example 2.

## laminin: Engelbreth-Holm-Swarm (EHS) mouse tumor laminin (Sigma); 850 kDa basement membrane glycoprotein of A, B1 and B2 chains
Aβ (1-40)
  dose dependence of inhibition of Aβ fibril formation, in words: dose-dependent manner; also recorded: Significant dose-dependent inhibition
Aβ (1-40); listed as Laminin
  dose dependence of inhibition of Aβ fibril formation, in words: dose-dependent manner
Aβ (1-40); 25 μM Aβ (1-40), 100 nM laminin, 1 week (FIG. 2)
  fold inhibition of Aβ (1-40) amyloid fibril formation (fluorescence lower than Aβ alone): 27.1 fold
Aβ (1-40); 25 μM Aβ (1-40), 100 nM laminin, 1 hour (FIG. 2)
  fold inhibition of Aβ (1-40) amyloid fibril formation (fluorescence lower than Aβ alone): 2.9 fold
Aβ (1-40); 25 μM Aβ (1-40), 100 nM laminin, 1 day (FIG. 2)
  fold inhibition of Aβ (1-40) amyloid fibril formation (fluorescence lower than Aβ alone): 4.6 fold
Aβ (1-40); 25 μM Aβ (1-40), 100 nM laminin, 3 days (FIG. 2)
  fold inhibition of Aβ (1-40) amyloid fibril formation (fluorescence lower than Aβ alone): 30.6 fold
Aβ (1-40); comparison of basement membrane components (FIG. 3), 25 μM Aβ (1-40), 100 nM, 1 hour to 1 week
  effect on Aβ (1-40) fibrillogenesis, in words: potent inhibitory effect
Aβ (1-40); 25 μM Aβ (1-40), 100 nM, 1 week
  fold decrease of Aβ fibrillogenesis: 21 fold
Aβ (1-40); 25 μM Aβ (1-40), 100 nM, 1 day
  fold decrease of Aβ fibrillogenesis: 9 fold
Aβ (1-40); 25 μM Aβ (1-40), 100 nM, 3 days
  fold decrease of Aβ fibrillogenesis: 9 fold
Aβ (1-40); 40 nM laminin
  inhibition of Aβ fibril formation, in words: significantly inhibited
Aβ (1-40); 100 nM laminin, 1 hour, 1 day
  inhibition of Aβ fibril formation, in words: significantly inhibited
[1]; 16 nM laminin
  dissolution of pre-formed Aβ amyloid fibrils: 25%
[1]; 31 nM laminin
  dissolution of pre-formed Aβ amyloid fibrils: 28%
[1]; 63 nM laminin
  dissolution of pre-formed Aβ amyloid fibrils: 39%
[1]; 125 nM laminin
  dissolution of pre-formed Aβ amyloid fibrils: 41%
[1]
  dose dependence of dissolution of pre-formed Aβ amyloid fibrils, in words: dissolution of pre-formed Alzheimer's disease amyloid fibrils in a dose-dependent manner
[1]; listed as Laminin
  dose dependence of dissolution of pre-formed Aβ amyloid fibrils, in words: dose-dependent manner
